B1: F-box/LRR-repeat protein 21 (Mus musculus), Q8BFZ4 (parent)
chain: MKRNNFSAVNKVVQSSPVVKQPKRGLCSSLRQTHALSVLLDWGTLPHHVILQIFQYLPLIDRARASSVCRRWNEVFHIPDLWRKFEFELNQSATSYFKSTHPDLIQQIIKKHAAHLQYVSFKVDSSTESAEAACDILSQLVNCSIQTLGLISTAKPSFMNVPKSHFVSALTVVFVNSKSLSSIKIEDTPVDDPSLKILVANNSDTLRLLKMSSCPHVSSDGILCVADHCQGLRELALNYYILSDEILLALSSETHVNLEHLRIDVVSENPGQIKFHSIKKRSWDALIKHSPRVNVVMYFFLYEEEFEAFFKEETPVTHLYFGRSVSRAILGRIGLNCPRLIELVVCANGLLPLDSELIRIAKHCKNLTSLGLSECEVSCSAFVEFVRLCGRRLTQLSIMEEVLVPDDRYTPDEVHTEVSKHLGRVWFPDVMPIW
partner: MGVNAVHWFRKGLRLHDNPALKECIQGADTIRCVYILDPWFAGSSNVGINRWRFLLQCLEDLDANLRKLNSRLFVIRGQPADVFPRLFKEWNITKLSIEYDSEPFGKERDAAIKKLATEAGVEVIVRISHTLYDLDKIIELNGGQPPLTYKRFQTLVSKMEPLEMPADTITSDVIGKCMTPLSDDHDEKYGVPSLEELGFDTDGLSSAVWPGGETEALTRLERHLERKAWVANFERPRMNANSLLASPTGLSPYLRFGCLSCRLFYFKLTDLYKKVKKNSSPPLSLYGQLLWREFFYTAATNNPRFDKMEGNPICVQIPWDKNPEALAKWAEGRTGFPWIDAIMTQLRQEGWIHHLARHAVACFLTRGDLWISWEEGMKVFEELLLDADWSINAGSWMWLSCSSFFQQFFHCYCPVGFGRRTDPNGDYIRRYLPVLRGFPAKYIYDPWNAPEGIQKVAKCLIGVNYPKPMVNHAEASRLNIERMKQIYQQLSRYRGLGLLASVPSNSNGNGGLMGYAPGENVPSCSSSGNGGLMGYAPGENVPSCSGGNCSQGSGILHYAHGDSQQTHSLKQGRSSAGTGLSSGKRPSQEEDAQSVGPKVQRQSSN

Variants of: B1
Conditions: with cry1_mouse Cry1, P97784

| Variant | effect of a mutation on the interaction |
| --- | --- |
| MKRNNFSAVNKVVQSSPVVKQPKRGLCSSLRQTHALSVLLDWGTLPHHVILQIFQYLPLIDRARASSVCRRWNEVFHIPDLWRKFEFELNQSATSYFKSTHPDLIQQIIKKHAAHLQYVSFKVDSSTESAEAACDILSQLVNCSIQTLELISTAKPSFMNVPKSHFVSALTVVFVNSKSLSSIKIEDTPVDDPSLKILVANNSDTLRLLKMSSCPHVSSDGILCVADHCQGLRELALNYYILSDEILLALSSETHVNLEHLRIDVVSENPGQIKFHSIKKRSWDALIKHSPRVNVVMYFFLYEEEFEAFFKEETPVTHLYFGRSVSRAILGRIGLNCPRLIELVVCANGLLPLDSELIRIAKHCKNLTSLGLSECEVSCSAFVEFVRLCGRRLTQLSIMEEVLVPDDRYTPDEVHTEVSKHLGRVWFPDVMPIW [G149E] | decreasing interaction strength |

Reference: IntAct's records for PubMed 23452855
